Source: paper PMC4482598

Target: ryanodine receptor type 1 (RyR1), endogenous in mouse myotubes (mouse (endogenous in mouse myotubes)) (UniProt E9PZQ0)
UniProt E9PZQ0, sequence (E9PZQ0 whole entry): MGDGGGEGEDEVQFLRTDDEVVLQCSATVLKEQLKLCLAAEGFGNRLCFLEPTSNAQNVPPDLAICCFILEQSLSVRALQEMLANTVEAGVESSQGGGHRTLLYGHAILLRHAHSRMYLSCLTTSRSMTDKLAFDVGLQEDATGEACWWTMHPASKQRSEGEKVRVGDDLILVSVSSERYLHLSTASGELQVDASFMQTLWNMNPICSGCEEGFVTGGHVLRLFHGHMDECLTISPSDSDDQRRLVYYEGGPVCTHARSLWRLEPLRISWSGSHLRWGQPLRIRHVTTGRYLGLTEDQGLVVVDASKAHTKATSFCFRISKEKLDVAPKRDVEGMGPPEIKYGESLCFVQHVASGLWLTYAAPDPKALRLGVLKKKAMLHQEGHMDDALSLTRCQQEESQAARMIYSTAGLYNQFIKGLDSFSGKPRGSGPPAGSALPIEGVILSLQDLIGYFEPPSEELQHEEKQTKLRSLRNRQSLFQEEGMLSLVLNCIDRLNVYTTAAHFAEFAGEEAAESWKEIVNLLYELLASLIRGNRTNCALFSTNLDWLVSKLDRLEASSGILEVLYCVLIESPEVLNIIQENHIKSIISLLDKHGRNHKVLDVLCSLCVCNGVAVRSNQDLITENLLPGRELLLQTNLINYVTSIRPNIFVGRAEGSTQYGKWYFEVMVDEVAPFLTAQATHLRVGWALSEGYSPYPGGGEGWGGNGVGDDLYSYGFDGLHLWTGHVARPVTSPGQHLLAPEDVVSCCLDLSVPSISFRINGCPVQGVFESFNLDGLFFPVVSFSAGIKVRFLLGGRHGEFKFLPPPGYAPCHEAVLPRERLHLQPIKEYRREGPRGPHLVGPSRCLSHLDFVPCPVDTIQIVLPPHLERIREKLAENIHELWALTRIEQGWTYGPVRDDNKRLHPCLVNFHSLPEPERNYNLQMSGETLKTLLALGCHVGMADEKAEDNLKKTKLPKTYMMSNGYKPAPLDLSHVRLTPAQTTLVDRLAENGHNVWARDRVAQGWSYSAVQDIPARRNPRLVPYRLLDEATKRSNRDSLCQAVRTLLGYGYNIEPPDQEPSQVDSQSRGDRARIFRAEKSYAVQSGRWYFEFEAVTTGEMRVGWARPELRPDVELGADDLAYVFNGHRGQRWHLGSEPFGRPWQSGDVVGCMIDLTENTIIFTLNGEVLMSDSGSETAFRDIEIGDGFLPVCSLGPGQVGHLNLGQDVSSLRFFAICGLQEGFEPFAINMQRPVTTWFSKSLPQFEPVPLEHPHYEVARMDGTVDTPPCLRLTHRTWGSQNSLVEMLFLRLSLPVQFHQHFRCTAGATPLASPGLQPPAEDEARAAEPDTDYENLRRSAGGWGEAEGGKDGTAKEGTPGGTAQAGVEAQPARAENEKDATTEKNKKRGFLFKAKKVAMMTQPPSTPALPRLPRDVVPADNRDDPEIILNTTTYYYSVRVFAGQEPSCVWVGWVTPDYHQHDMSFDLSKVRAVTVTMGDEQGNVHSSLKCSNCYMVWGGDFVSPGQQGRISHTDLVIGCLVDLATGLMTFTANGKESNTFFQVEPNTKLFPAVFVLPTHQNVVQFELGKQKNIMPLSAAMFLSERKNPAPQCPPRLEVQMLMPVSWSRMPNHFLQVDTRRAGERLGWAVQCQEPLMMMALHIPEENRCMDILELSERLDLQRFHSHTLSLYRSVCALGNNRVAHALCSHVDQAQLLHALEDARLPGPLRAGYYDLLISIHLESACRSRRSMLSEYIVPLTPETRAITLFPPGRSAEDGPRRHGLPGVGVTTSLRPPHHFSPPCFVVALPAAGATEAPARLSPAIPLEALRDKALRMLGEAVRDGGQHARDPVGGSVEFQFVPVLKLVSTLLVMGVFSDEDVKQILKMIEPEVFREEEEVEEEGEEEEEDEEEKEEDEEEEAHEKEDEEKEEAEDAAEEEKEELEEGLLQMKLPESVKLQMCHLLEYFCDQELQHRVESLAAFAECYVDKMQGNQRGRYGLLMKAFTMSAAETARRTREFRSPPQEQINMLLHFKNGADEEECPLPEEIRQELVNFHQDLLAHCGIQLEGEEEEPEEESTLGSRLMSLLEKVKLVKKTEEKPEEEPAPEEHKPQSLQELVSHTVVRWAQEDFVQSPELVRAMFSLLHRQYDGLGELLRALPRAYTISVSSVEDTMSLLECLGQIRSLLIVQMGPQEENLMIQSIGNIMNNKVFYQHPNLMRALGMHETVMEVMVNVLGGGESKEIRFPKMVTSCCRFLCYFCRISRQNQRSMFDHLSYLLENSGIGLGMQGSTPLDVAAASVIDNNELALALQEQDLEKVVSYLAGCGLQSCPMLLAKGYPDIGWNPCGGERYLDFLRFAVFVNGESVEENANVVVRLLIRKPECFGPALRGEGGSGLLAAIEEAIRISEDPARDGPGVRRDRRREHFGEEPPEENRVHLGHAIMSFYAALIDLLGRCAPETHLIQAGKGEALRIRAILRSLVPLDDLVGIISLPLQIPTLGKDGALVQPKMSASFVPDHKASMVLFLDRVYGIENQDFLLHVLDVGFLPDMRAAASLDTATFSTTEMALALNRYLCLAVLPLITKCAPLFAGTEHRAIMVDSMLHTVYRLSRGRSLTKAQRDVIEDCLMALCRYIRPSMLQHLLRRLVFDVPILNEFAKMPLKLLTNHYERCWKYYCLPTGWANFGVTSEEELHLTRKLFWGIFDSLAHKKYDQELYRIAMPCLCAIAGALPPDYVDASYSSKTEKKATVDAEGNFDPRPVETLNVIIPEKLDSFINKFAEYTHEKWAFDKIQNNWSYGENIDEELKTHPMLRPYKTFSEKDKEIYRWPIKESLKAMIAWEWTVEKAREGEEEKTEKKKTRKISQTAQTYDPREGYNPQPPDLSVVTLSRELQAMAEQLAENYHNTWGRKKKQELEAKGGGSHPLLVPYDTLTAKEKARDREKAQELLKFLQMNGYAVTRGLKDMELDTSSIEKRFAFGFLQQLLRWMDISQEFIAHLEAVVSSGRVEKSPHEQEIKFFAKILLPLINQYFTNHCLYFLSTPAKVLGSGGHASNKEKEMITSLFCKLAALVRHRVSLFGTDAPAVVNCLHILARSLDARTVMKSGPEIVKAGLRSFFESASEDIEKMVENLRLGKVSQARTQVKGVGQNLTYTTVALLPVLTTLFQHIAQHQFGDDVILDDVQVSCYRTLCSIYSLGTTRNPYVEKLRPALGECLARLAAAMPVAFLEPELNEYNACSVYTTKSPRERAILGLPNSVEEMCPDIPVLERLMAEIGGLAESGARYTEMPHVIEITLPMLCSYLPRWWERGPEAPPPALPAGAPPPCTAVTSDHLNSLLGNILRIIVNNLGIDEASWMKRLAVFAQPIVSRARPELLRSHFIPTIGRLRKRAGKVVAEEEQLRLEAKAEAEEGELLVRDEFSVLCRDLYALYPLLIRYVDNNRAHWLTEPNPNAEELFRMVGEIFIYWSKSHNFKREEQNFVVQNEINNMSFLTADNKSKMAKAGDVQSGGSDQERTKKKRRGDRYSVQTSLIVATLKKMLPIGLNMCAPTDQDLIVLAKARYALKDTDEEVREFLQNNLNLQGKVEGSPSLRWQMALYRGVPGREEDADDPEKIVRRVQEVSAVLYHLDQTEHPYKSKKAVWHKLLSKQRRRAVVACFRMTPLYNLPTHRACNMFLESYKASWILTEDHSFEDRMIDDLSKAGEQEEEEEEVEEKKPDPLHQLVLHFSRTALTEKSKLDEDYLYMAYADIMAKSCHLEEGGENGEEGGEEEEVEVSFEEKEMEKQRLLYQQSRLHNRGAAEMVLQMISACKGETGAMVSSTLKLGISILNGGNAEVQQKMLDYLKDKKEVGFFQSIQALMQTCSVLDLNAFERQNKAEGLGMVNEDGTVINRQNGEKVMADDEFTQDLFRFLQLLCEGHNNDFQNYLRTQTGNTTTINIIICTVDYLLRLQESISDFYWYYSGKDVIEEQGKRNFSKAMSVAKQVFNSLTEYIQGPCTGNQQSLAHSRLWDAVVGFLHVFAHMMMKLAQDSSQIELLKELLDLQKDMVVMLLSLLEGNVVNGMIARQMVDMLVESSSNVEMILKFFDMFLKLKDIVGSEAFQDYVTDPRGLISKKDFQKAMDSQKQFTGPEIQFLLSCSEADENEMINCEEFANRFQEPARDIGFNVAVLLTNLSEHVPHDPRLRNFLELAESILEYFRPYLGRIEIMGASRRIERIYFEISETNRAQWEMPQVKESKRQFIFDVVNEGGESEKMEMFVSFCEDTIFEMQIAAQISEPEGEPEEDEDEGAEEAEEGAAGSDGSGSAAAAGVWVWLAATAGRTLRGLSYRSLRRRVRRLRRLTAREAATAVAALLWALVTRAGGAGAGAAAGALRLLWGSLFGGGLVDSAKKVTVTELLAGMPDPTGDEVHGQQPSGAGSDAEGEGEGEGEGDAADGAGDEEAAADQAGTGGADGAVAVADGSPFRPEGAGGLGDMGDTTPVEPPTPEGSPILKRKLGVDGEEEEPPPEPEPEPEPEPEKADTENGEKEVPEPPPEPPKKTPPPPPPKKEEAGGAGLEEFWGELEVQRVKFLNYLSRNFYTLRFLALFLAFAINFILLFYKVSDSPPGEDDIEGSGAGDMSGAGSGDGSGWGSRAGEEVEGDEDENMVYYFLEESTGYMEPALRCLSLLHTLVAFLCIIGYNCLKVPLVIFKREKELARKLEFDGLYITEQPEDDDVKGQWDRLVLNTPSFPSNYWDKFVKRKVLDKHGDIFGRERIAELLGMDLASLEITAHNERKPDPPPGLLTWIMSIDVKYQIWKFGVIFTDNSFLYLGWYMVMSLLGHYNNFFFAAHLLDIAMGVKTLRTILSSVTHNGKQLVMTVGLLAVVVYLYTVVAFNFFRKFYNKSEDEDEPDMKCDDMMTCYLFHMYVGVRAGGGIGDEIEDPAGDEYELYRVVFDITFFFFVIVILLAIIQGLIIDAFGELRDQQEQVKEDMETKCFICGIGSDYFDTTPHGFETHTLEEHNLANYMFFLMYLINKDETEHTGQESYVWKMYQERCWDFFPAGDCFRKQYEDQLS

- intramolecular FRET efficiency (C-terminal CFP to FlAsH at H458) of construct 21 in ß1 KO myotubes (control without native ß1 subunits): 0.12
Substance: H458 CCPGCC ß1a-CFP (construct 21) (natural protein)
